Data from PMC6512903.

Legend:
Assay in all cases: SPR
FcRn (human) = FcRn (human) (UniProt P55899)
FcγRIIb/c (human) = FcγRIIb/c (human) (UniProt P31994)
FcγRIa (human) = FcγRIa (human) (UniProt P12314)
FcγRIIIb (human) = FcγRIIIb (human) (UniProt O75015)
FcγRIIIa (F) (human) = FcγRIIIa (F) (human) (UniProt P08637)
FcγRIIIa (V) (human) = FcγRIIIa (V) (human) (UniProt P08637)

Chain of UniProt P55899 (P55899 24-365, chain 1 of 2): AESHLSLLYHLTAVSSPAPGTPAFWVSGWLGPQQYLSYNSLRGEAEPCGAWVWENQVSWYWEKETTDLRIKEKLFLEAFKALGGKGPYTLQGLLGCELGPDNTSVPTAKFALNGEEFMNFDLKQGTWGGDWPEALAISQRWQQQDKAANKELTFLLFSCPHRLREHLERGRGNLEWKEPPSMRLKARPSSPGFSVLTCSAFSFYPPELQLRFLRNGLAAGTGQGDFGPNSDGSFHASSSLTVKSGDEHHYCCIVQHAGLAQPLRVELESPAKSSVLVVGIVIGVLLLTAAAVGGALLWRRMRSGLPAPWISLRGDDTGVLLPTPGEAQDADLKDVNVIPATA
Chain of UniProt P55899 (P61769 21-119, chain 2 of 2, further chain): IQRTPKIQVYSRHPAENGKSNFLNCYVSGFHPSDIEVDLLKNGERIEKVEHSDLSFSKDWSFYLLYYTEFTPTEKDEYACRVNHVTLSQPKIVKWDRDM
Chain of UniProt P31994 (P31994 43-310): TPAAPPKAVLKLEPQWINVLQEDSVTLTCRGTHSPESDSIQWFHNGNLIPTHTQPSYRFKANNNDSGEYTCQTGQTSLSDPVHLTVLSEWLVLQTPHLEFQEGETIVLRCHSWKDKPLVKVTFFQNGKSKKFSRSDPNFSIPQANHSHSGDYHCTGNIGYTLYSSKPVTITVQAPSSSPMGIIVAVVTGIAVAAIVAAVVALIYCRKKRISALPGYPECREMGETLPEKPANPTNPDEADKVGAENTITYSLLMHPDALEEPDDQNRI
Chain of UniProt P12314 (P12314 16-374): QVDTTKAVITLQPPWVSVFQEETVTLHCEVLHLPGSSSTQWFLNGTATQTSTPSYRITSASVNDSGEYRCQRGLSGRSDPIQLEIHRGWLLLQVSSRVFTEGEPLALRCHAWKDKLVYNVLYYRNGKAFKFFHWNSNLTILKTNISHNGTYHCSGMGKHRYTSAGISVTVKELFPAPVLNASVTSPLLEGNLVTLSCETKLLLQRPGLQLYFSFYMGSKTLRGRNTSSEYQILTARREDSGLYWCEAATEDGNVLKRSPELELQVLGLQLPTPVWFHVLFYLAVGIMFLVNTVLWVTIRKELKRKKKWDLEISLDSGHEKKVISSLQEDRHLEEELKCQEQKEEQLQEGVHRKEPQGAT
Chain of UniProt O75015 (O75015 17-200): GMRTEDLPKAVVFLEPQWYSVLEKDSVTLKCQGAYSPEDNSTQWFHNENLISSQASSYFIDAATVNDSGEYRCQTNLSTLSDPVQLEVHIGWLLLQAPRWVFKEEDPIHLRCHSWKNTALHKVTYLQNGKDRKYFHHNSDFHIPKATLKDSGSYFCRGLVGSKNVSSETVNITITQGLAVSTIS

CN-rituximab (MabThera, sourced in China but manufactured in Europe) (antibody)
relative binding activity (KD ratio to a reference), mean of batches (FcRn (human)): 131%
relative binding activity (KD ratio to a reference), mean of batches (FcγRIIb/c (human)): 99%

EU-rituximab (MabThera, sourced and manufactured in Europe) (antibody)
relative binding activity (KD ratio to a reference), mean of batches (FcγRIa (human)): 118%
relative binding activity (KD ratio to a reference), mean of batches (FcRn (human)): 121%
relative binding activity (KD ratio to a reference), mean of batches (FcγRIIIb (human)): 90%

HLX01 (antibody)
relative binding activity (KD ratio to a reference), mean of batches (FcγRIa (human)): 103%
relative binding activity (KD ratio to a reference), mean of batches (FcγRIIIa (F) (human)): 98%
relative binding activity (KD ratio to a reference), mean of batches (FcRn (human)): 113%
relative binding activity (KD ratio to a reference), mean of batches (FcγRIIIa (V) (human)): 95%
relative binding activity (KD ratio to a reference), mean of batches (FcγRIIb/c (human)): 90%
